Reference: patent US20240000938A1 (published 2024)
Blank lines part the entries; values can stand above or below the binder they belong to.

Columns and labels:
Experiment in all cases: activation reporter or marker
[1] = target: T1, mH-Y (MiHA-Y) peptide on H-2Db (mouse)
T1 peptide: KCSRNRQYL

[2] = target: T2, HA-1 variant H, HA-1(H); Rho GTPase activating protein 45 (HMHA1) peptide on HLA-A*02:01 (human)
T2 peptide: VLHDDLLEA

[3] = target: T3, HA-1(R), allelic variant; Rho GTPase activating protein 45 (HMHA1) peptide on HLA-A*02:01 (human)
T3 peptide: VLRDDLLEA

binding result [1]: recognises
B1: H-Y TCR Jb2.3L (TCR, V domains shown)
Valpha: AQSVDQPDAHVTLSEGASLELRCSYSYSAAPYLFWYVQYPGQSLQFLLKYITGDTVVKGTKGFEAEFRKSNSSFNLKKSPAHWSDSAKYFCALEGQDQGGSAKLIFGEGTKLTVSS
Vbeta: EAAVTQSPRNKVAVTGGKVTLSCNQTNNHNNMYWYRQDTGHGLRLIHYSYGAGSTEKGDIPDGYKASRPSQENFSLILELATPSQTSVYFCASGDNSAETLYFGPGTRLLVL

binding result [2]: recognises
binding result [3]: no recognition
B2: KP7 HA-1H TCR (TCR, V domains shown)
Valpha: KNEVEQSPQNLTAQEGEFITINCSYSVGISALHWLQQHPGGGIVSLFMLSSGKKKHGRLIATINIQEKHSSLHITASHPRDSAVYICAVRSVSGAGSYQLTFGKGTKLSVIP
Vbeta: DTGVSQNPRHKITKRGQNVTFRCDPISEHNRLYWYRQTLGQGPEFLTYFQNEAQLEKSRLLSDRFSAERPKGSFSTLEIQRTEQGDSAMYLCASSIDSFNEQFFGPGTRLTVL
